# Where no end group is shown, it is not given here.
# T1: Peptide 2: α-synuclein amino acids 108-117 (10 amino acids) PQEGILEDMP (human, also: biotin, position not given here)
# T1 construct: Biotinylated peptide loaded on streptavidin biosensors
# T1 peptide: PQEGILEDMP
# Target: T1, Peptide 2: α-synuclein amino acids …
# Experiment: BLI (ForteBio Octet Red96), biotinylated peptide on streptavidin biosensors, IGP101 at multiple concentrations
# Experimental: The binding of IGP101 to two biotinylated α-synuclein peptides (SEQ ID NO:10 and SEQ ID NO:11) was determined using the Streptavidin biosensors. Biotinylated peptides were loaded at 5 μg/ml for 700 seconds, 300 seconds for baseline recording and then IGP101 association and dissociation measured for 600 seconds each at multiple concentrations. Double reference sensors were employed in all testing to measure and subtract any observed background signal from nonspecific binding or system noise.
# Analysis was performed with ForteBio Data Analysis Software (v8.2). After background subtraction, a 1:1 local kinetic model was fit to the observed association and dissociation curves. Overall KD, Kₒₙ, Koff, and R2 correlation coefficients were determined. Where possible, a global curve fit was also performed for multiple concentrations of the antibody/analyte.
binder,measurement,value
"IGP101 (antibody, V domains shown, Mouse monoclonal antibody from hybridoma ATCC PTA-9197; It was tested as whole mouse IgG, captured on anti-mouse IgG biosensors; The constant regions and isotype are not explicitly stated; a g2b constant region primer is mentioned only in illustrative cloning methods; also called IGP101 antibody; mouse monoclonal antibody IGP101) VH: EVQLVESGGGLVQPKGTLKLSCAASGFSFNTYAMNWVRQAPGKSLEWVARTLSKSNNYATYYADSVKDRFTISRDDSQSMLSLQMNNLKTEDTAMYYCVGAFAYWGQGTLVTVSA VL: DIVMTQAAPSVPVTPGESVSISCRSSKSLLHSNGNTYLYWFLQRPGQSPQLLIYRMSNLASGVPDRFSGSGSGTAFTLRISRVEAEDVGVYYCMQHLEFPFTFGAGTKLELK",binding result,no binding
